Drawing on US20090029924A1, this text covers Ki for eleven substances.

pKi: −log10 of the molar value. A value given as a limit tells only on which side of the number the result lay.

The target in the assay is Recombinant human furin (human) (UniProt P09958). As to the kind of experiment: furin, Pyr-RTKR-AMC cleavage.
Recombinant human furin (human), sequence (P09958 108-714 limits assumed): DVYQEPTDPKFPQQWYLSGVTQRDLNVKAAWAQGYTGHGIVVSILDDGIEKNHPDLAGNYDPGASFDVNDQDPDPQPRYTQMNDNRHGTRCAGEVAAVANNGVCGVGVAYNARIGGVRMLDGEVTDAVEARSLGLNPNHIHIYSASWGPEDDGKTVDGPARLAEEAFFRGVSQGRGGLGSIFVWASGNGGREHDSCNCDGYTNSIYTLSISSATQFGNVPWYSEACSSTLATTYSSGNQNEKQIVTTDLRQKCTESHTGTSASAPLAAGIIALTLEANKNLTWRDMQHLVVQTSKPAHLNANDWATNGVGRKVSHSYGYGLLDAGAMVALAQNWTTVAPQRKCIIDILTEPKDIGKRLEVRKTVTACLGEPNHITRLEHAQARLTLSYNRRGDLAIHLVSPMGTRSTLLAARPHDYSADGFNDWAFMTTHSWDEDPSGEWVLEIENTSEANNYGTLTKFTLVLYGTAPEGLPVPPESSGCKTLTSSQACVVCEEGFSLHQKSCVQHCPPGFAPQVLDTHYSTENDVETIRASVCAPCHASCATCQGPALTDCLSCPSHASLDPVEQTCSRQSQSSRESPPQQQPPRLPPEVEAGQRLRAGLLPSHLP
In general, pKi refers to the Ki on a negative log10 scale, so that one unit is a factor of ten. Turning to TPQRkRRRKKRG (peptide), the pKi was under 7.00.

Consider TPQR5RRRKKRG (peptide), for which the negative logarithm of the Ki (pKi) was under 7.00.

For TPQR3RRRKKRG (peptide), the pKi was under 7.00.

With TPQR2RRRKKRG (peptide), the pKi was under 7.00.

Turning to TPQR8RRRKKRG (peptide), the pKi was under 7.00.

For TPQR7RRRKKRG (peptide), the negative-log Ki (pKi) is under 7.00.

TPQR4RRRKKRG (peptide): the pKi was under 7.00.

On to TPQR6RRRKKRG (peptide), for which the pKi is under 7.00.

Take TPQRrRRRKKRG (peptide): the pKi was under 7.00.

Regarding TPQReRRRKKRG (peptide), the pKi is under 7.00.

As to TPQR1RRRKKRG (peptide), the pKi was under 7.00.
